{"source": "patent US20040081963", "biological_target": "Sso7d-ΔTaq (wild-type fusion) G24W (Sso7d numbering; reverts the mutant fusion to wild type) (Sulfolobus solfataricus? / Thermus aquaticus?) (UniProt P19821)", "sequence (P19821 whole entry, stated change not applied, the tested form may be a part)": "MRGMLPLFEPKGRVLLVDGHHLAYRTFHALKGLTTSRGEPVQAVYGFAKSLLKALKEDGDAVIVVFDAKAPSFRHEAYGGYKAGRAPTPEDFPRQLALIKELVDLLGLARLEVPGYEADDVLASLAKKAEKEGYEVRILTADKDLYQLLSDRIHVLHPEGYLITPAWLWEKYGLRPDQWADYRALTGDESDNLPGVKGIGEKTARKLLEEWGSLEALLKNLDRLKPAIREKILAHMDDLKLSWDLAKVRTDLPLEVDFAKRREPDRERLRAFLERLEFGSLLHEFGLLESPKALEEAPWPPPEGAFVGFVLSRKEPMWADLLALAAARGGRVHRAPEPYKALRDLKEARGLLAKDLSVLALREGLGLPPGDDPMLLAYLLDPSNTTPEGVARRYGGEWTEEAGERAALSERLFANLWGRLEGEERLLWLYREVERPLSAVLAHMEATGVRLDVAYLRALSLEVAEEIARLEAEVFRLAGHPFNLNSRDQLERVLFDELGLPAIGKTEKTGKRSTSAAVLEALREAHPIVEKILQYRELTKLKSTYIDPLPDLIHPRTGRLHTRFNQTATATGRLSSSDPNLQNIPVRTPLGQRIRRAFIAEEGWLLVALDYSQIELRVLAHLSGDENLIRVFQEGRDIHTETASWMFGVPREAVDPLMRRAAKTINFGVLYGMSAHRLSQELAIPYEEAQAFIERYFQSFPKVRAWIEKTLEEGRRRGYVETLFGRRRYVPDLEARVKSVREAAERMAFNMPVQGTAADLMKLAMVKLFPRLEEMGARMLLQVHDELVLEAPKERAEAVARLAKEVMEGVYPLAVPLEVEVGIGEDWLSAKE", "conditions": "PCR yield ratio primer 57F over 57F5/6, reverse primer 732R, annealing 64 C", "data": [{"sequence": "TCCGCCCTTCTTCGTCATAACT (double strand) [mismatched primer 57F5/6 on lambda DNA]", "values": [{"measurement": "PCR match/mismatch yield ratio (match/mismatch yield ratio)", "result": 0.92}]}]}
